Test results: PMC11381335, “Unraveling the structure and function of a novel SegC protein interacting with the SegAB chromosome segregation complex in Archaea” (Nucleic Acids Research, 2024)
One block for each molecule: values may come before it.

Assays:
[1] = target: SegC labeled with Alexa488 green-fluorescent dye (Saccharolobus solfataricus); assay: fluorescence polarisation; 10 nM Alexa488-labeled SegC; SegA or SegB in 2-fold serial dilution from 10 uM; room temperature, 30 min; 20 mM HEPES-NaOH pH 7.3, 100 mM NaCl, 2 mM MgCl2; concentration of protein that binds 50% of the labeled SegC
[2] = target: T1, SegC (SSO0033) (Saccharolobus solfataricus, UniProt Q981B4); assay: malachite green phosphate release; assay type: biochemical; conditions: 10 uM protein, 1 mM NTP, 2 mM MgCl2, 100 mM NaCl, pH 7.5, 37 °C, 1 h; no DNA
T1 construct: full length 165 residues, C-terminal His6 (pET21b), E. coli BL21(DE3)

[3] = target: T1, SegC (SSO0033); assay: X-ray crystal structure of ATP-soaked SegC crystals; assay type: binding; conditions: apo crystals soaked within one minute in 20 mM ATP, 2 mM MgCl2, pH 7.5; ADP modelled at the interface of two dimers (Tyr61, Arg73)
[4] = target: SegC (SSO0033) (Saccharolobus solfataricus); assay: crystal structure; SegC crystals grown in 100 mM Tris-HCl pH 8.5, 300 mM potassium thiocyanate, 20°C; 2.8 Å; also soaked with 20 mM ATP (SegC-ADP)

Sequence of SegC labeled with Alexa488 green-fluorescent dye (Saccharolobus solfataricus) (Q981B4 entry or part of it): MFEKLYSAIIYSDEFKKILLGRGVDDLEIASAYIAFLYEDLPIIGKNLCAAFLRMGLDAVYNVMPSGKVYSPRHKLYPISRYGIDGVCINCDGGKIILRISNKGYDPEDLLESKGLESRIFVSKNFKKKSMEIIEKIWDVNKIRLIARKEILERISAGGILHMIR
T1 sequence (Q981B4 entry or part of it): as above

Kd [1]: 1400 nM
Molecule: SegB (natural protein)

Molecule: Nc1ccn([C@@H]2O[C@H](COP(=O)(O)OP(=O)(O)OP(=O)(O)O)[C@@H](O)[C@H]2O)c(=O)n1 [CTP]
malachite green phosphate release [2]: SegC exhibited catalytic activity against all of the tested NTPs with no apparent preference

Kd [1]: 1800 nM
Molecule: SegA (natural protein)

Molecule: Nc1ncnc2c1ncn2[C@@H]1O[C@H](COP(=O)(O)OP(=O)(O)O)[C@@H](O)[C@H]1O [ADP]
X-ray crystal structure of ATP-soaked SegC crystals [3]: In this SegC-ADP complex structure, two residues (Tyr61 and Arg73) were found to interact

stoichiometry N [4]: 4
Molecule: SegC (SSO0033) (natural protein)
